Laboratory results from patent US20230159620A1, “COMPOSITIONS AND METHODS OF TREATMENT FOR VASCULAR DISEASES AND THROMBOSIS” (Washington University, priority 2021, published 2023).

What was measured:
[1] = target: T1, Pearl 1 (Homo sapiens, UniProt Q5VY43); experiment: Pearl 1 immunoprecipitation and pTyrosine immunoblot, platelets; assay type: cell-based; conditions: 15 minutes exposure, vs BSA
T1 construct: endogenous in cells; host or cells: freshly isolated human platelets
T1 sequence (Q5VY43 21-1037): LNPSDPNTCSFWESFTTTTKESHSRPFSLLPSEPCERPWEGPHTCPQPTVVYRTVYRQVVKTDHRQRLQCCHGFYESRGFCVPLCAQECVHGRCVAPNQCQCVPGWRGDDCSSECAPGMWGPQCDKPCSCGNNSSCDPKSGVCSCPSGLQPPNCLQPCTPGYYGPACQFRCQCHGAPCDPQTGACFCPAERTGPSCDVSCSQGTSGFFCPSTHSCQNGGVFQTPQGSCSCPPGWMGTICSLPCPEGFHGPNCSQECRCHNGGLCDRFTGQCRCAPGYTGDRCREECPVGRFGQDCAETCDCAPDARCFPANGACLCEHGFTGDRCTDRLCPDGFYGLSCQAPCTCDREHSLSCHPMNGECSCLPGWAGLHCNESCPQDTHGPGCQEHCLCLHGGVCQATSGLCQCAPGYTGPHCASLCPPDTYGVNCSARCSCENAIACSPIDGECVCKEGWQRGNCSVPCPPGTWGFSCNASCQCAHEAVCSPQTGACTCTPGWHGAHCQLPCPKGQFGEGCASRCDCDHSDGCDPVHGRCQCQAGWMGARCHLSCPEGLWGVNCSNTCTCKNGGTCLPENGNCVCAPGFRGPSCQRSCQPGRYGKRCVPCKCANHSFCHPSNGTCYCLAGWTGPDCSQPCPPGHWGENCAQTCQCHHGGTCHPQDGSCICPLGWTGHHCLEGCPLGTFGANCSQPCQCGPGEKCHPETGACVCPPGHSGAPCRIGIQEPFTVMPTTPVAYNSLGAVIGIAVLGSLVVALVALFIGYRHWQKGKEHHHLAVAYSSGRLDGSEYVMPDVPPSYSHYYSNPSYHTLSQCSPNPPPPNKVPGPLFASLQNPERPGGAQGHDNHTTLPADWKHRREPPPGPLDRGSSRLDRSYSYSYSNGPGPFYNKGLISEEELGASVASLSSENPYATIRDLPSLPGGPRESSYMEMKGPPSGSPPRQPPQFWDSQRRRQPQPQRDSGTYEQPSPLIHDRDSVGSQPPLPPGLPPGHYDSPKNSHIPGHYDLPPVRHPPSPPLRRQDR
Experimental: Subsequently, 204, of BSA-blocked Invitrogen Protein A Dynabeads slurry was added, followed by rotation for 45 minutes. The beads were separated using magnetism and washed with RIPA buffer 4-5 times, then resuspended with reducing LDS sample buffer and analyzed by immunoblot assay. Bands for p-tyrosine and Pearl 1 were detected at ˜140 kDa.
Prior to performing signaling assays, cells were trypsinized, centrifuged, suspended in basal media, and counted using an automated hemocytometer. Cells were further diluted in basal media to an assay-dependent concentration. Cells were then incubated with gentle agitation for 60 minutes to prevent cell attachment and reduce basal signaling. PP1, Dynasore, MK-2206, and Rapamycin were diluted in DMSO and used in assay concentrations of 10 μM, 100 μM, 10 μM, and respectively, for the final 20-30 minutes of incubation in basal media. An equal volume of DMSO was used as the negative control condition. […] 1 μg Pearl 1 polyclonal antibody was added as a specific positive control. 20% growth media or 2% fetal bovine serum, labeled “Serum” in figures, was added as a non-specific positive control. The cells were centrifuged at 300G for 3 minutes with the exception of platelets, which were centrifuged at 500G for 5 minutes. […] Protein content was determined using a bicinchoninic acid assay with BSA standards (#23225, Pierce BCA Protein Assay Kit). […]

[2] = test system: HUVECs; experiment: HUVEC adhesion assay; assay type: cell-based, human; conditions: wells coated with increasing concentrations, 10 minutes
Experimental: Subsequently, wells were blocked with 100 mg/mL BSA and washed with DPBS. HUVECs were collected and resuspended in basal media. 5,000 cells were added to each well. Cells were centrifuged and incubated at 37° C. for 10 minutes. The plate was gently centrifuged upside down to remove non-adhered cells. Adhered cells were fixed with 4% paraformaldehyde, stained with 4′,6-diamidino-2-phenylindole (DAPI), and counted by automated microscopy as done previously.

[3] = test system: integrin signaling kinases; experiment: Integrin signaling western blot, VSMCs; assay type: cell-based, mouse; conditions: VSMCs adherent to coated wells, relative to inert protein control
Experimental: Cells were resuspended in serum-free media (SFM) and incubated with gentle agitation to prevent cell attachment and reduce basal signaling. […] Cells were briefly centrifuged to the bottom of the wells and incubated for 8 min (for VSMCs) or 15 min (for THP-1 cells) before lysis with cell lysis buffer (#9803, Cell Signaling Technologies) containing a cocktail of protease and phosphatase inhibitors. Western blots were performed by standard techniques, as briefly follows. Protein content was determined using a bicinchoninic acid assay with BSA standards (#23225, Pierce™ BCA Protein Assay Kit). Cell lysates were then reduced with DTT in lithium dodecyl sulfate sample buffer (#NP0007, Invitrogen). Equal protein amounts were added to polyacrylamide gels (#4561086, BioRad) and electrophoresed prior to transferring to a nitrocellulose or polyvinylidene fluoride membrane (#1620260, BioRad). Membranes were blocked in 5% BSA/Tris-Buffered Saline with tween 20 for 30 min. The indicated primary antibodies were incubated with the pre-blocked membranes for overnight at 4° C. Membranes were washed with Tris-Buffered Saline with tween 20, probed with fluorescent secondary antibodies, and imaged. β-actin or β-tubulin served as a loading control.

[4] = target: Pearl 1ECD (Homo sapiens, UniProt Q5VY43); conditions: pulldown assays
Experimental: The assay buffer consisted of lmg/mL BSA, 0.01% Tween 20, and 10 mM Ca^2+ in PBS. The proteins were incubated together for two hours while rotating. Where indicated, 2 μg primary antibodies were added during the final 30 minutes of the initial incubation. Following the incubation, aliquots were reserved as the input fraction. Subsequently, 6-10 μL slurry of Pierce Anti-c-Myc Magnetic Beads, Invitrogen Dynabeads Protein G beads, or Pierce Streptavidin Magnetic Bead slurry were added, followed by a 1-hour incubation at 20° C. with gentle agitation. Beads were washed in PBS +0.01% Tween 20 and resuspended reducing LDS sample buffer and analyzed by immunoblot assay.

phospho-tyrosine signal of Pearl 1 (140 kDa) [1]: robust phospho-tyrosine signal | co-immunoprecipitation of Pearl 1ECD with Myc-tagged SVEP1 [4]: co-immunoprecipitates
Substance: SVEP1: recombinant murine SVEP1 extracellular matrix protein with Myc and poly-histidine tag, expressed in 293F cells
adherence of HUVECs to coated protein [2]: dose-dependent manner up to 20 pg/mL | phosphorylation of FAK, Paxillin, Src, ERK and p38 [3]: increased phosphorylation
